From PMC8734478 (Science (New York, N.Y.), 2021)
Ends that are not written are not given here. * marks the point of attachment. Palmitoyl = CCCCCCCCCCCCCCCC(=O)*

Molecular target: human Hedgehog acyltransferase (HHAT) (human, UniProt Q5VTY9 1-493)
Test: cryo-EM structure

Chain of human Hedgehog acyltransferase (HHAT) (Q5VTY9 whole entry): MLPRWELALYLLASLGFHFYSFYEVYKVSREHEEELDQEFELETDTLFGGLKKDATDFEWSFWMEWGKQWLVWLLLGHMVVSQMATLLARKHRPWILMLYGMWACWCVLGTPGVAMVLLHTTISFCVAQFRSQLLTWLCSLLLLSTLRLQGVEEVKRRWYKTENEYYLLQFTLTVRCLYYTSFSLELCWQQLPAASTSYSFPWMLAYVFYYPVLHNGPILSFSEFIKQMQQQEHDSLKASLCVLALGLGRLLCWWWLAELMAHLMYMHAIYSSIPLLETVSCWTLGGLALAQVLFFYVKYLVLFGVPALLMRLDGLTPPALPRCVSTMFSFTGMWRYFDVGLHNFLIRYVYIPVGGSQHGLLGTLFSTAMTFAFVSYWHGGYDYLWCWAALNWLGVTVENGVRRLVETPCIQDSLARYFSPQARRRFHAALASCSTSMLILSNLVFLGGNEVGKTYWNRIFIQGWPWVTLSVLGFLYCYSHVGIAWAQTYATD

Palmitoyl-CGPGRGFGKRRH (peptide, UniProt Q15465 24-35, looked up): binds.
